Legend:
C5aR1 [1] = biological target: T1, C5aR1 (Homo sapiens, UniProt P21730); conditions: cited from earlier work
T1 sequence (P21730 1-350): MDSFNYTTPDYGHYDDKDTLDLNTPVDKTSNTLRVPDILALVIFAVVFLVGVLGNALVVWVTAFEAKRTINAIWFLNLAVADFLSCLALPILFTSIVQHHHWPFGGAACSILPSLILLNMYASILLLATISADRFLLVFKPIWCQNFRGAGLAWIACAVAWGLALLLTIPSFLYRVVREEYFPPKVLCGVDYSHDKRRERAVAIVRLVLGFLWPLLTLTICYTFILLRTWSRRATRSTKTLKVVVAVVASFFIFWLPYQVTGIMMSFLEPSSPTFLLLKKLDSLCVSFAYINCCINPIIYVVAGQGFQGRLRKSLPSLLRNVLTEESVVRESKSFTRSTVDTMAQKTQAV

mouse C5aR1 = biological target: T2, mouse C5aR1 (Mus musculus, UniProt P30993); conditions: cited from earlier work
T2 sequence (P30993 1-351): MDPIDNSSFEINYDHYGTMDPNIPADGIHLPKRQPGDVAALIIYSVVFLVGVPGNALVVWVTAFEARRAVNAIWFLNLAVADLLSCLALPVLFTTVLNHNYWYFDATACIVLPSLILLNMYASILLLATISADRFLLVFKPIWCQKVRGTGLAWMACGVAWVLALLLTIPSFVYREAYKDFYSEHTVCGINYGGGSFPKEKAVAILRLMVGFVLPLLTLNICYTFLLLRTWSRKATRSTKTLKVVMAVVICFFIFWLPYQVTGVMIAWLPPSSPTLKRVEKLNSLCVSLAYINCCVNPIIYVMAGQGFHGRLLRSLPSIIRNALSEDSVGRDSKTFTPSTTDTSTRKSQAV

human C5aR2 (C5L2) = human C5aR2 (C5L2) (Homo sapiens, UniProt Q9P296); conditions: cited from earlier work
human C5aR2 (C5L2), sequence (Q9P296 whole entry): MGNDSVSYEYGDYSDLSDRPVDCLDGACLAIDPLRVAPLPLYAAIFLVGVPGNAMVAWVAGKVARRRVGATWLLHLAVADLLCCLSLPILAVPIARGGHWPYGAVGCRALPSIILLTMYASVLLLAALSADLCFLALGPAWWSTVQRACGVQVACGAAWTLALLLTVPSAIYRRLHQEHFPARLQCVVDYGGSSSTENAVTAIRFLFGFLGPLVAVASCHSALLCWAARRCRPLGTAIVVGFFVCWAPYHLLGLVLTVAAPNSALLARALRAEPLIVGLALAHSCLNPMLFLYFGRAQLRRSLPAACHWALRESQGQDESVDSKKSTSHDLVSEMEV

mouse C5aR2 (C5L2) = biological target: T3, mouse C5aR2 (C5L2) (Mus musculus, UniProt Q8BW93); conditions: cited from earlier work
T3 sequence (Q8BW93 1-344): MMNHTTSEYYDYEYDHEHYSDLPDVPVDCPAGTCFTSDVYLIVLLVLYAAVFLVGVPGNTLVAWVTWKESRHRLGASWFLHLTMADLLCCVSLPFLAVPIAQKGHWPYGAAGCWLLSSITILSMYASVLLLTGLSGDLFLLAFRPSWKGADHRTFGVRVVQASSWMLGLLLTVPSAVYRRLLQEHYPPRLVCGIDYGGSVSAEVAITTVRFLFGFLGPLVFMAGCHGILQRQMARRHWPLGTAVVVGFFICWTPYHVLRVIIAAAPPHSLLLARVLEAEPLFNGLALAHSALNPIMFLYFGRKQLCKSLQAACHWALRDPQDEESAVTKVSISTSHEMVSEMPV

C5aR1 [2] = biological target: T1, C5aR1; assay: GC-IC-induced CCL18 and pro-inflammatory cytokine production in CBE-treated human MΦ-like cell line U937 with C5aRA; format: cell-based; set-up: endogenous in cells; host or cells: U937 (human macrophage-like cell line), CBE-treated
[3] = CBE-treated U937 cells, GC-IC stimulation, ELISA

B1: Thr Leu Gln Lys Lys Ile Glu Glu Ile Ala Ala Lys Tyr Lys His Ser Val Val Lys Lys Cys Cys Tyr Asp Gly Ala Ala Val Asn Asn Asp Glu Thr Cys Glu Gln Arg Ala Ala Arg Ile Ser Leu Gly Pro Arg Cys Ile Lys Ala … (protein)
chain: TLQKKIEEIAAKYKHSVVKKCCYDGAAVNNDETCEQRAARISLGPRCIKAFTECCVVASQLRANISFKRS
modifications: mutant C5a-(1-66, Cys27A1a) -A8B-Del. 71-73 of human C5a
notes: positions 27 and 68-71 of human C5a mutated and positions 72-74 deleted
- affinity to bind human C5aR1 (C5aR1 [1]): high affinity
- affinity to bind mouse C5aR1 (mouse C5aR1): high affinity
- affinity to bind human C5aR2 (C5L2) (human C5aR2 (C5L2)): high affinity
- affinity to bind mouse C5aR2 (C5L2) (mouse C5aR2 (C5L2)): high affinity
- GC-IC-induced production of CCL18 (C5aR1 [2]; [3]): abolished
- GC-IC-induced production of IL1β (C5aR1 [2]; [3]): abolished
- GC-IC-induced production of IL6 (C5aR1 [2]; [3]): abolished
- GC-IC-induced production of IL23 (C5aR1 [2]; [3]): abolished
- GC-IC-induced production of TNFα (C5aR1 [2]; [3]): abolished
- GC-IC-induced production of CCL18 (C5aR1 [2]; CBE-treated U937 cells, GC-IC stimulation, ELISA, listed as C5aR antagonist A8^Δ71-73): marked reduction
- MΦs, DC and T cells mediated immune inflammation (C5aR1 [2]; human model of Gaucher disease): significantly reduces

— patent US11324803B2, “Methods and compositions for treatment of Gaucher Disease via modulation of C5a receptor” (Children's Hospital Medical Center, priority 2015, dated 2022)
